Source: EP4745153A1, “GLP-1, GIP AND GCG RECEPTOR […] USE THEREOF” (Jiangsu Hengrui Pharmaceuticals Co., Ltd., priority 2023, dated 2025)
Where two headings read alike, the source gives them in different places. Starred links: 1 amine or outer side, 2 acyl side, 3 side chain; linkers in the order of their positions; H or OH if unused. Non-standard residues stand in square brackets, D forms with d. Groups on a side chain read outwards from the residue. No end group written: not given here. *: point of attachment. C20 diacid = O=C(O)CCCCCCCCCCCCCCCCCCC(=O)*; γGlu = O=C(O)[C@H](CCC(=O)[*:2])N[*:1]; αMeL = CC(C)C[C@](C)(N)C(=O)O; αMeK = C[C@](N)(CCCCN)C(=O)O; AEEA = NCCOCCOCC(=O)O; Aib = CC(C)(N)C(=O)O

Tests used:
Assay in all cases: cell-based or functional assay
[1] = target: T1, human glucagon-like peptide-1 receptor (human, UniProt P43220 24-463)
[2] = target: T2, human glucose-dependent insulinotropic polypeptide receptor (human, UniProt P48546 22-466)
T2 sequence (looked up): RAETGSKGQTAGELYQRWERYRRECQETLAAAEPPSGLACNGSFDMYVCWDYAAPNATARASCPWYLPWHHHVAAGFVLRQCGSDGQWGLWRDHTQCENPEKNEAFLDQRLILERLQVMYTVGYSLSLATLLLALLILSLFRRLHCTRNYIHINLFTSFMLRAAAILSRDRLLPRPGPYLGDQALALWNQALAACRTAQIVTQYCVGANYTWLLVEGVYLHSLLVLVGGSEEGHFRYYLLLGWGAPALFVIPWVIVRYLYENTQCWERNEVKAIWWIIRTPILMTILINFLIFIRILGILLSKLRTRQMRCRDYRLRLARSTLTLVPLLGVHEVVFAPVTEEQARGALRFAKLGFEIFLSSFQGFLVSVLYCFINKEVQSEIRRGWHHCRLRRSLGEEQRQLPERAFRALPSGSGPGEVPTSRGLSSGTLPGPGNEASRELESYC

human glucagon receptor [3] = target: T3, human glucagon receptor (human, UniProt P47871 26-477)
T3 sequence (P47871 26-477): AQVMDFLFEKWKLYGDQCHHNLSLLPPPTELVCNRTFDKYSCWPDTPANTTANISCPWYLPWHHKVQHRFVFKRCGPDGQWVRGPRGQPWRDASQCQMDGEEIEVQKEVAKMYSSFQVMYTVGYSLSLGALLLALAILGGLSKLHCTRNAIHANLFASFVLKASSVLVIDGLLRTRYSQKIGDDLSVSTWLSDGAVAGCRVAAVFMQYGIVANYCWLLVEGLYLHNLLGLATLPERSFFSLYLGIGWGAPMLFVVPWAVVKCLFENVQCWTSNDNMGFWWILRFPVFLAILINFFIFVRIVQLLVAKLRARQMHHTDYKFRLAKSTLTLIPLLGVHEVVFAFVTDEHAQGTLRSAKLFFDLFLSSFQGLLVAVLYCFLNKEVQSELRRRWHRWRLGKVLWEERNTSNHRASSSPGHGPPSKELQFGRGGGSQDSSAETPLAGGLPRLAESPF

[4] = target: T1, human glucagon-like peptide-1 receptor; remark: listed apart in the source
[5] = target: T2, human glucose-dependent insulinotropic …; remark: listed apart in the source
human glucagon receptor [6] = target: T3, human glucagon receptor; remark: listed apart in the source

| Binder | Activity against human GLP-1R (EC50 nM) [1] [nM] | Activity against human GIPR (EC50 nM) [2] [nM] | Activity against human GCGR (EC50 nM) (human glucagon receptor [3]) [nM] | Activity against human GLP-1R (EC50 nM) [4] [nM] | Activity against human GIPR (EC50 nM) [5] [nM] | Activity against human GCGR (EC50 nM) (human glucagon receptor [6]) [nM] |
| --- | --- | --- | --- | --- | --- | --- |
| H[Aib]HGTFTSDYSILLEK([AEEA-AEEA-γGlu-C20 diacid])QAAQEFVEWLLAGGPSSGAPPPS-NH2 (N-terminus assumed; SMILES CC[C@H](C)[C@H](NC(=O)[C@H](CO)NC(=O)[C@H](Cc1ccc(O)cc1)NC(=O)[C@H](CC(=O)O)NC(=O)[C@H](CO)NC(=O)[C@@H](NC(=O)[C@H](Cc1ccccc1)NC(=O)[C@@H](NC(=O)CNC(=O)[C@H](Cc1c[nH]cn1)NC(=O)C(C)(C)NC(=O)[C@@H](N)Cc1c[nH]cn1)[C@@H](C)O)[C@@H](C)O)C(=O)N[C@@H](CC(C)C)C(=O)N[C@@H](CC(C)C)C(=O)N[C@@H](CCC(=O)O)C(=O)N[C@@H](CCCCNC(=O)COCCOCCNC(=O)COCCOCCNC(=O)CC[C@H](NC(=O)CCCCCCCCCCCCCCCCCCC(=O)O)C(=O)O)C(=O)N[C@@H](CCC(N)=O)C(=O)N[C@@H](C)C(=O)N[C@@H](C)C(=O)N[C@@H](CCC(N)=O)C(=O)N[C@@H](CCC(=O)O)C(=O)N[C@@H](Cc1ccccc1)C(=O)N[C@H](C(=O)N[C@@H](CCC(=O)O)C(=O)N[C@@H](Cc1c[nH]c2ccccc12)C(=O)N[C@@H](CC(C)C)C(=O)N[C@@H](CC(C)C)C(=O)N[C@@H](C)C(=O)NCC(=O)NCC(=O)N1CCC[C@H]1C(=O)N[C@@H](CO)C(=O)N[C@@H](CO)C(=O)NCC(=O)N[C@@H](C)C(=O)N1CCC[C@H]1C(=O)N1CCC[C@H]1C(=O)N1CCC[C@H]1C(=O)N[C@@H](CO)C(N)=O)C(C)C) [Compound No. 0152] | 0.054 | 0.009 | 0.29 | – | – | – |
| H[Aib]HGTFTSDYS[αMeK]LLEK([AEEA-AEEA-γGlu-C20 diacid])KAAQEFVEWLLAGGPSSGAPPPS-NH2 (N-terminus assumed; SMILES CC(C)C[C@H](NC(=O)[C@H](CC(C)C)NC(=O)[C@H](Cc1c[nH]c2ccccc12)NC(=O)[C@H](CCC(=O)O)NC(=O)[C@@H](NC(=O)[C@H](Cc1ccccc1)NC(=O)[C@H](CCC(=O)O)NC(=O)[C@H](CCC(N)=O)NC(=O)[C@H](C)NC(=O)[C@H](C)NC(=O)[C@H](CCCCN)NC(=O)[C@H](CCCCNC(=O)COCCOCCNC(=O)COCCOCCNC(=O)CC[C@H](NC(=O)CCCCCCCCCCCCCCCCCCC(=O)O)C(=O)O)NC(=O)[C@H](CCC(=O)O)NC(=O)[C@H](CC(C)C)NC(=O)[C@H](CC(C)C)NC(=O)[C@](C)(CCCCN)NC(=O)[C@H](CO)NC(=O)[C@H](Cc1ccc(O)cc1)NC(=O)[C@H](CC(=O)O)NC(=O)[C@H](CO)NC(=O)[C@@H](NC(=O)[C@H](Cc1ccccc1)NC(=O)[C@@H](NC(=O)CNC(=O)[C@H](Cc1c[nH]cn1)NC(=O)C(C)(C)NC(=O)[C@@H](N)Cc1c[nH]cn1)[C@@H](C)O)[C@@H](C)O)C(C)C)C(=O)N[C@@H](C)C(=O)NCC(=O)NCC(=O)N1CCC[C@H]1C(=O)N[C@@H](CO)C(=O)N[C@@H](CO)C(=O)NCC(=O)N[C@@H](C)C(=O)N1CCC[C@H]1C(=O)N1CCC[C@H]1C(=O)N1CCC[C@H]1C(=O)N[C@@H](CO)C(N)=O) [Compound No. 0112] | – | – | – | 0.031 | 0.005 | 0.087 |
| H[Aib]QGTFTSDYSILLEK([AEEA-AEEA-γGlu-C20 diacid])KAAQEFVEWLLAGGPSSGAPPPS-NH2 (N-terminus assumed; SMILES CC[C@H](C)[C@H](NC(=O)[C@H](CO)NC(=O)[C@H](Cc1ccc(O)cc1)NC(=O)[C@H](CC(=O)O)NC(=O)[C@H](CO)NC(=O)[C@@H](NC(=O)[C@H](Cc1ccccc1)NC(=O)[C@@H](NC(=O)CNC(=O)[C@H](CCC(N)=O)NC(=O)C(C)(C)NC(=O)[C@@H](N)Cc1c[nH]cn1)[C@@H](C)O)[C@@H](C)O)C(=O)N[C@@H](CC(C)C)C(=O)N[C@@H](CC(C)C)C(=O)N[C@@H](CCC(=O)O)C(=O)N[C@@H](CCCCNC(=O)COCCOCCNC(=O)COCCOCCNC(=O)CC[C@H](NC(=O)CCCCCCCCCCCCCCCCCCC(=O)O)C(=O)O)C(=O)N[C@@H](CCCCN)C(=O)N[C@@H](C)C(=O)N[C@@H](C)C(=O)N[C@@H](CCC(N)=O)C(=O)N[C@@H](CCC(=O)O)C(=O)N[C@@H](Cc1ccccc1)C(=O)N[C@H](C(=O)N[C@@H](CCC(=O)O)C(=O)N[C@@H](Cc1c[nH]c2ccccc12)C(=O)N[C@@H](CC(C)C)C(=O)N[C@@H](CC(C)C)C(=O)N[C@@H](C)C(=O)NCC(=O)NCC(=O)N1CCC[C@H]1C(=O)N[C@@H](CO)C(=O)N[C@@H](CO)C(=O)NCC(=O)N[C@@H](C)C(=O)N1CCC[C@H]1C(=O)N1CCC[C@H]1C(=O)N1CCC[C@H]1C(=O)N[C@@H](CO)C(N)=O)C(C)C) [Compound No. 0154] | 0.033 | 0.031 | 1.62 | – | – | – |
| H[Aib]HGTFTSDYSILLEK([AEEA-AEEA-γGlu-C20 diacid])QAAQEFVEWLLA[dE]GPSSGAPPPS-NH2 (N-terminus assumed; SMILES CC[C@H](C)[C@H](NC(=O)[C@H](CO)NC(=O)[C@H](Cc1ccc(O)cc1)NC(=O)[C@H](CC(=O)O)NC(=O)[C@H](CO)NC(=O)[C@@H](NC(=O)[C@H](Cc1ccccc1)NC(=O)[C@@H](NC(=O)CNC(=O)[C@H](Cc1c[nH]cn1)NC(=O)C(C)(C)NC(=O)[C@@H](N)Cc1c[nH]cn1)[C@@H](C)O)[C@@H](C)O)C(=O)N[C@@H](CC(C)C)C(=O)N[C@@H](CC(C)C)C(=O)N[C@@H](CCC(=O)O)C(=O)N[C@@H](CCCCNC(=O)COCCOCCNC(=O)COCCOCCNC(=O)CC[C@H](NC(=O)CCCCCCCCCCCCCCCCCCC(=O)O)C(=O)O)C(=O)N[C@@H](CCC(N)=O)C(=O)N[C@@H](C)C(=O)N[C@@H](C)C(=O)N[C@@H](CCC(N)=O)C(=O)N[C@@H](CCC(=O)O)C(=O)N[C@@H](Cc1ccccc1)C(=O)N[C@H](C(=O)N[C@@H](CCC(=O)O)C(=O)N[C@@H](Cc1c[nH]c2ccccc12)C(=O)N[C@@H](CC(C)C)C(=O)N[C@@H](CC(C)C)C(=O)N[C@@H](C)C(=O)N[C@H](CCC(=O)O)C(=O)NCC(=O)N1CCC[C@H]1C(=O)N[C@@H](CO)C(=O)N[C@@H](CO)C(=O)NCC(=O)N[C@@H](C)C(=O)N1CCC[C@H]1C(=O)N1CCC[C@H]1C(=O)N1CCC[C@H]1C(=O)N[C@@H](CO)C(N)=O)C(C)C) [Compound No. 0153] | 0.051 | 0.01 | 0.334 | – | – | – |
| H[Aib]HGTFTSDYS[αMeK]YLEK([AEEA-AEEA-γGlu-C20 diacid])KAAQEFVEWLIEGGPSSGAPPPS-NH2 [Compound No. 0115] | – | – | – | 0.023 | 0.051 | 0.425 |
| H[Aib]QGTFTSDYSI[αMeL]LEK([AEEA-AEEA-γGlu-C20 diacid])KAAQEFVEWLLAGGPSSGAPPPS-NH2 (N-terminus assumed; SMILES CC[C@H](C)[C@H](NC(=O)[C@H](CO)NC(=O)[C@H](Cc1ccc(O)cc1)NC(=O)[C@H](CC(=O)O)NC(=O)[C@H](CO)NC(=O)[C@@H](NC(=O)[C@H](Cc1ccccc1)NC(=O)[C@@H](NC(=O)CNC(=O)[C@H](CCC(N)=O)NC(=O)C(C)(C)NC(=O)[C@@H](N)Cc1c[nH]cn1)[C@@H](C)O)[C@@H](C)O)C(=O)N[C@@](C)(CC(C)C)C(=O)N[C@@H](CC(C)C)C(=O)N[C@@H](CCC(=O)O)C(=O)N[C@@H](CCCCNC(=O)COCCOCCNC(=O)COCCOCCNC(=O)CC[C@H](NC(=O)CCCCCCCCCCCCCCCCCCC(=O)O)C(=O)O)C(=O)N[C@@H](CCCCN)C(=O)N[C@@H](C)C(=O)N[C@@H](C)C(=O)N[C@@H](CCC(N)=O)C(=O)N[C@@H](CCC(=O)O)C(=O)N[C@@H](Cc1ccccc1)C(=O)N[C@H](C(=O)N[C@@H](CCC(=O)O)C(=O)N[C@@H](Cc1c[nH]c2ccccc12)C(=O)N[C@@H](CC(C)C)C(=O)N[C@@H](CC(C)C)C(=O)N[C@@H](C)C(=O)NCC(=O)NCC(=O)N1CCC[C@H]1C(=O)N[C@@H](CO)C(=O)N[C@@H](CO)C(=O)NCC(=O)N[C@@H](C)C(=O)N1CCC[C@H]1C(=O)N1CCC[C@H]1C(=O)N1CCC[C@H]1C(=O)N[C@@H](CO)C(N)=O)C(C)C) [Compound No. 0155] | 0.036 | 0.014 | 3.65 | – | – | – |
